Assay results: publication PMC5027291, “The NF-YC–RGL2 module integrates GA and ABA signalling to regulate seed germination in Arabidopsis” (Nature Communications, 2016)

Target: T1, GST-RGL2 (Arabidopsis, UniProt Q8GXW1 1-547)
T1 construct: RGL2 of Arabidopsis; coding region cloned into pGEX-4T-1; source: E. coli Rosetta (DE3), purified (Glutathione Sepharose beads); not shown: GST, N-terminal, kept
T1 sequence (looked up): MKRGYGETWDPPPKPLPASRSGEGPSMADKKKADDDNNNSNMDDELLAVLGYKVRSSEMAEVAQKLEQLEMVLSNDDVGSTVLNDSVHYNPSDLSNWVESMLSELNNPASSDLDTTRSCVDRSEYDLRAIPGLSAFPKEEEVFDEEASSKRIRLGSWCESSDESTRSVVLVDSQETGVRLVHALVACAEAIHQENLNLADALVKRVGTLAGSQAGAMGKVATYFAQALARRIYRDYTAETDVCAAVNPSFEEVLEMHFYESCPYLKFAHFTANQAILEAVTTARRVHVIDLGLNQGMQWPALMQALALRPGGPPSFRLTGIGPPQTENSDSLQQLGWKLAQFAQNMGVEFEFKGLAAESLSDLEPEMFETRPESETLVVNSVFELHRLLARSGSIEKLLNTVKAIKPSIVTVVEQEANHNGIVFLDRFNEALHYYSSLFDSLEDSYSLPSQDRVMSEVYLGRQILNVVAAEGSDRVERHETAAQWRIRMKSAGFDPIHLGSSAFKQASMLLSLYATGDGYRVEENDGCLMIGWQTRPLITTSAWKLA
Assay: pull-down; 2 ug of His-NF-YCs incubated with GST or GST-RGL2 immobilised on Glutathione Sepharose beads; 50 mM Tris-HCl pH 8.0, 100 mM NaCl, 1 mM EDTA; 4 °C, 2 h; blots with anti-His and anti-GST
Conditions: both partners purified

Binder	binding result
His-NF-YC3 (natural protein, Arabidopsis, UniProt Q9ZVL3 1-217, looked up, NF-YC3 of Arabidopsis; coding region cloned into pQE30; source: E. coli Rosetta (DE3), purified (Ni-NTA agarose); not shown: His, N-terminal, kept) MDQQGQSSAMNYGSNPYQTNAMTTTPTGSDHPAYHQIHQQQQQQLTQQLQSFWETQFKEIEKTTDFKNHSLPLARIKKIMKADEDVRMISAEAPVVFARACEMFILELTLRSWNHTEENKRRTLQKNDIAAAVTRTDIFDFLVDIVPREDLRDEVLGGVGAEAATAAGYPYGYLPPGTAPIGNPGMVMGNPGAYPPNPYMGQPMWQQPGPEQQDPDN	binds
His-NF-YC4 (natural protein, Arabidopsis, UniProt Q9FMV5 1-250, looked up, NF-YC4 of Arabidopsis; coding region cloned into pQE30; source: E. coli Rosetta (DE3), purified (Ni-NTA agarose); not shown: His, N-terminal, kept) MDNNNNNNNQQPPPTSVYPPGSAVTTVIPPPPSGSASIVTGGGATYHHLLQQQQQQLQMFWTYQRQEIEQVNDFKNHQLPLARIKKIMKADEDVRMISAEAPILFAKACELFILELTIRSWLHAEENKRRTLQKNDIAAAITRTDIFDFLVDIVPREEIKEEEDAASALGGGGMVAPAASGVPYYYPPMGQPAVPGGMMIGRPAMDPSGVYAQPPSQAWQSVWQNSAGGGDDVSYGSGGSSGHGNLDSQG	binds
His-NF-YC9 (natural protein, Arabidopsis, UniProt Q8L4B2 1-231, looked up, NF-YC9 of Arabidopsis; coding region cloned into pQE30; source: E. coli Rosetta (DE3), purified (Ni-NTA agarose); not shown: His, N-terminal, kept) MDQQDHGQSGAMNYGTNPYQTNPMSTTAATVAGGAAQPGQLAFHQIHQQQQQQQLAQQLQAFWENQFKEIEKTTDFKNHSLPLARIKKIMKADEDVRMISAEAPVVFARACEMFILELTLRSWNHTEENKRRTLQKNDIAAAVTRTDIFDFLVDIVPREDLRDEVLGSIPRGTVPEAAAAGYPYGYLPAGTAPIGNPGMVMGNPGGAYPPNPYMGQPMWQQQAPDQPDQEN	binds
